One protein from patent US20040006777 can be followed below.

In the series the target is Raytide (synthetic peptide substrate).

B1: T7 tagged Lyp1 (protein)
chain: MDQREILQKFLDEAQSKKITKEEFANEFLKLKRQSTKYKADKTYPTTVAENAKNIKKNRYKDILPYDYSRVELSLITSDEDSSYINANFIKGVYGPKAYIATQGPLSTTLLDFWRMIWEYSVLIIVMACMEYEMGKKKCERYWAEPGEMQLEFGPFSVSCEAEKRKSDYIIRTLKVKFNSETRTIYQFHYKNWPDHDVPSSIDPILELIWDVRCYQEDDSVPICIHCSAGCGRTGVICAIVDYTWMLLKDGIIPENFSVFSLIREMRTQRPSLVQTQEQYELVYNAVLELFKRQMDVIRDKHSGTESQAKHCIPEKNHTLQADSYSPNLPKSTTKAAKMMNQQRTKMEIKESSSFDFRTSEISAKEELVLHPAKSSTSFDFLELNYSFDKNADTTMKWQTKAFPIVGEPLQKHQSLDLGSLLFEGCSNSKPVNAAGRYFNSKVPITRTKSTPFELIQQRETKEVDSKENFSYLESQPHDSCFVEMQAQKVMHVSSAELNYSLPYDSKHQIRNASNVKHHDSSALGVYSYIPLVENPYFSSWPPSGTSSKMSLDLPEKQDGTVFPSSLLPTSSTSLFSYYNSHSSLSLNSPTNISSLLNQESAVLATAPRIDDEIPPPLPVRTPESFIVVEEAGEFSPNVPKSLSSAVKVKIGTSLEWGGTSEPKKFDDSVILRPSKSVKLRSPKSELHQDRSSPPPPLPERTLESFFLADEDCMQAQSIETYSTSYPDTMENSTSSKQTLKTPGKSFTRSKSLKILRNMKKSICNSCPPNKPAESVQSNNSSSFLNFGFANRFSKPKGPRNPPPTWNI
Regarding B1, the “33P release from labelled Raytide, in vitro phosphatase assay with immunoprecipitates” value is “a seven fold increase in ^33P release from the substrate incubated with Lyp immunoprecipitates compared to control immunoprecipitates”.
